Measurements as given in article doi:10.1101/2024.08.25.607996 (bioRxiv, 2024).

Molecular target: the molecule itself
Experiment: cryo-EM structure

B1: feline APN ectodomain without the Fc fusion (dimer) (domain or fragment)
chain: DQSKPWNVYRLPKTLIPDSYNVTLRPYLTPNNKGLYVFTGTNIVRFTCKESTNIVIIHSKRLNYTSHQGHMVALSGVGGFHPQPVIVRTELVELTEYLVVHLQEPLVAGRQYEMNSEFQGELADDLAGFYRSEYMENGVKKVLATTHMQATEARKSFPCFDEPAMKATFNITIIHPNNLVALSNMLPRGPSVPFGEDPTWKVTEFETTPIMSTYLLAYIVSEFSYVETRAPSGVLIRIWARPSAINQGHGDYALKVTGPILDFFSQHYDTPYPLNKSDQIALPDFNAGAMENWGLVTYRESALLYDRQSSSSGNQERVVTVIAHELAHQWFGNLVTLEWWNDLWLNEGFASYVEYLGADFAEPTWNLKDLMVLNDVYRVMAVDALASSHPLSTPASEINTPAQISEVFDSISYSKGASVLRMLSNFLTEDLFKMGIASYLHTYKYGNTIYLNLWEHLQQVVDKQPTIKLPDTVSAIMDRWILQMGFPVITVDTQTGTISQQHFLLDPQSVVTRPSQFNYLWIVPISSVRSGSPQAHYWLPGVEKAQNDLFKTTANDWVLLNLNVTGYYLVNYDNENWKKIQTQLQTDLSVIPVINRAQVIHDAFNLASAQKVPVTLALNNTLFLIQETEYMPWQAALSSLSYFKLMFDRSEVYGPMKRYLKKQVTPLFNHFERVTKNWTDHPQTLMDQYSEINAVSTACSYGVPECEKLAATLFAQWKKNPQNNPIHPNLRSTVYCNAIAQGGEEEWNFVWEQFLKAELVNEADKLRGALACSNQVWILNRFLSYTLDPNLIRKQDVTSTLSSISSNVVGQTLVWDFVQSNWKKLFQDYGTGSFSFSNLIQAVTRRFSTEFELQQLEQFKKNNMDTGFGSATRALEQALEKTKANLKWVKENKDVVLRWFTENS
How did the “stoichiometry N” value turn out when B1 was run?
The value was 2.
